Test results: patent US20230062800A1 (DENALI THERAPEUTICS, published 2023)

Target: T1, human apical domain TfR (human, UniProt P02786 198-378)
T1 construct: The SPR analyte is printed only as "human apical domain TfR"; also called human TfR; human transferrin receptor 1 apical domain
Test: Biacore SPR as in Example 2; steady-state fit
Method: To determine whether SGSH-Fc fusion proteins with engineered TfR binding affects the ability of the modified Fc domain to interact with human TfR, the affinity of ETV: SGSH Bizyme Structure 1 (Example 1) for human TfR was assessed using a Biacore™ surface plasmon resonance assay. Biacore™ Series S CM5 sensor chips were immobilized with anti-human Fab (human Fab capture kit from GE Healthcare). 5 μg/mL of the SGSH-Fc fusion proteins were captured for 1 minute on each flow cell and serial 3-fold dilutions of human apical domain TfR were injected at a flow rate of 30 μL/min. Each sample was analyzed with a 3-minute association and a 3-minute dissociation. After each injection, the chip was regenerated using 10 mM glycine-HCl (pH 2.1). Binding response was corrected by subtracting the RU from a flow cell capturing an irrelevant IgG at similar density. Steady-state affinities were obtained by fitting the response at equilibrium against the concentration using Biacore™ T200 Evaluation Software v3.1. Biacore™ analysis established that SGSH-Fc fusion proteins with a TfR-binding site engineered into the Fc region bind to human TfR.

T1 sequence (P02786 198-378 limits assumed): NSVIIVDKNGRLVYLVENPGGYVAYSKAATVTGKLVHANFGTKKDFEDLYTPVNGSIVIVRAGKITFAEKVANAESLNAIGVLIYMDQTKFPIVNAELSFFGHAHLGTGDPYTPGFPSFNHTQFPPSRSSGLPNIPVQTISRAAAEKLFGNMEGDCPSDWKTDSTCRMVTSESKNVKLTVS

B1: ETV:SGSH Bizyme Structure 4 (Fc fusion)
chain 1: RPRNALLLLADDGGFESGAYNNSAIATPHLDALARRSLLFRNAFTSVSSCSPSRASLLTGLPQHQNGMYGLHQDVHHFNSFDKVRSLPLLLSQAGVRTGIIGKKHVGPETVYPFDFAYTEENGSVLQVGRNITRIKLLVRKFLQTQDDRPFFLYVAFHDPHRCGHSQPQYGTFCEKFGNGESGMGRIPDWTPQAYDPLDVLVPYFVPNTPAARADLAAQYTTVGRMDQGVGLVLQELRDAGVLNDTLVIFTSDNGIPFPSGRTNLYWPGTAEPLLVSSPEHPKRWGQVSEAYVSLLDLTPTILDWFSIPYPSYAIFGSKTIHLTGRSLLPALEAEPLWATVFGSQSHHEVTMSYPMRSVQHRHFRLVHNLNFKMPFPIDQDFYVSPTFQDLLNRTTAGQPTGWYKDLRHYYYRARWELYDRSRDPHETQNLATDPRFAQLLEMLRDQLAKWQWETHDPWVCAPDGVLEEKLSPQCQPLHNELGGGGSDKTHTCPPCPAPEAAGGPSVFLFPPKPKDTLMISRTPEVTCVVVDVSHEDPEVKFNWYVDGVEVHNAKTKPREEQYNSTYRVVSVLTVLHQDWLNGKEYKCKVSNKALSAPIEKTISKAKGQPREPQVYTLPPSRDELTKNQVSLSCAVKGFYPSDIAVEWESNGQPENNYKTTPPVLDSDGSFFLVSKLTVDKSRWQQGNVFSCSVMHEALHNHYTQKSLSLSPGK
chain 2: RPRNALLLLADDGGFESGAYNNSAIATPHLDALARRSLLFRNAFTSVSSCSPSRASLLTGLPQHQNGMYGLHQDVHHFNSFDKVRSLPLLLSQAGVRTGIIGKKHVGPETVYPFDFAYTEENGSVLQVGRNITRIKLLVRKFLQTQDDRPFFLYVAFHDPHRCGHSQPQYGTFCEKFGNGESGMGRIPDWTPQAYDPLDVLVPYFVPNTPAARADLAAQYTTVGRMDQGVGLVLQELRDAGVLNDTLVIFTSDNGIPFPSGRTNLYWPGTAEPLLVSSPEHPKRWGQVSEAYVSLLDLTPTILDWFSIPYPSYAIFGSKTIHLTGRSLLPALEAEPLWATVFGSQSHHEVTMSYPMRSVQHRHFRLVHNLNFKMPFPIDQDFYVSPTFQDLLNRTTAGQPTGWYKDLRHYYYRARWELYDRSRDPHETQNLATDPRFAQLLEMLRDQLAKWQWETHDPWVCAPDGVLEEKLSPQCQPLHNELGGGGSDKTHTCPPCPAPEAAGGPSVFLFPPKPKDTLMISRTPEVTCVVVDVSHEDPEVKFNWYVDGVEVHNAKTKPREEQYNSTYRVVSVLTVLHQDWLNGKEYKCKVSNKALSAPIEKTISKAKGQPREPQVYTLPPSRDELTKNQVSLWCLVKGFYPSDIAVEWESYGTEWANYKTTPPVLDSDGSFFLYSKLTVTKEEWQQGFVFSCSVMHEALHNHYTQKSLSLSPGK
modifications: SGSH cysteine at position 70 (full-length SGSH numbering) largely converted to formylglycine (fGly 99% in Table 2); the fGly form is SEQ ID NO:95; SGSH cysteine at position 70 (full-length SGSH numbering) largely converted to formylglycine (fGly 99% in Table 2); the fGly form is SEQ ID NO:67
notes: Heterodimer; The preparation may be a mixture; also called fourth "N-terminal bizyme" SGSH-Fc fusion protein; P329S variant of Bizyme Structure 1
**Q.** Which Kd does the source give for B1 here?
**A.** The Kd was 340 nM.
